According to US7189837 (NEUROTECH S A, dated 2007):

B1: hTR-FcΔH (human transferrin receptor residues 1-97 fused to CH1 and hinge deleted human IgG1 heavy chain constant region), expressed on BHK cells (Fc fusion)
chain: MMDQARSAFSNLFGGEPLSYTRFSLARQVDGDNSHVEMKLAVDEEENADNNTKANVTKPKRCSGSICYGTIAVIVFFLIGFMIGYLGYCKGVEPKTEGSAPELLGGPSVFLFPPKPKDTLMISRTPEVTCVVVDVSHEDPEVKFNWYVDGVEVHNAKTKPREEQYNSTYRVVSVLTVLHQDWLNGKEYKCKVSNKALPAPIEKTISKAKGQPREPQVYTLPPSRDELTKNQVSLTCLVKGFYPSDIAVEWESNGQPENNYKTTPPVLDSDGSFFLYSKLTVDKSRWQQGNVFSCSVMHEALHNHYTQKSLSLSPGK
notes: also called BHK-FcΔH; BHK-FcΔH(3)

Experiments:
[1] = biological target: hTR-FcΔH (human transferrin receptor residues 1-97 fused to CH1 and hinge deleted human IgG1 heavy chain constant region), expressed on BHK cells (human); test: cell ELISA on BHK-FcΔH cells, goat anti-human IgG Fc alkaline phosphatase conjugate 1:1000, PNPP substrate
[2] = biological target: T1, human FcγRI on interferon-γ-treated U937 cells (human, UniProt P12314 16-374); test: inferred from Fc receptor-mediated superoxide production in U937 cells
T1 construct: whole, on cells; also called FcγR1; CD64
Description: To assess whether cell surface expression of reverse Fc was biologically active in terms of Fc receptor binding and complement fixation, Fc receptor-mediated superoxide production in the human monocyte-like cell line was examined. Superoxide was measured spectrophotometrically as a function of the cell's ability to reduce cytochrome c. Superoxide production was determined using the 96-well microtiter plate assay of Tao, et al., *J Leukoc Biol*, 58: 203–208 (1995). 25,000 cells/well of either BHK-WT (control), opsonized BHK cells, or BHK-reverse Fc clones were added to the assay plate containing either human monocyte-like U937 cells (ATCC, Rockville, Md.) pre treated with recombinant human interferon-γ (R&D Systems, Minneapolis, Minn.) or lavaged mouse peritoneal macrophages. The O_2-release was measured as the superoxide dismutase (SOD) inhibitable reduction of cytochrome c at 550 nm by using a ThermoMax Plate reader (Molecular Devices, Menlo Park, Calif.). The rate of O_2-production was monitored from time 0 to […] after stimulation.

T1 sequence (P12314 16-374): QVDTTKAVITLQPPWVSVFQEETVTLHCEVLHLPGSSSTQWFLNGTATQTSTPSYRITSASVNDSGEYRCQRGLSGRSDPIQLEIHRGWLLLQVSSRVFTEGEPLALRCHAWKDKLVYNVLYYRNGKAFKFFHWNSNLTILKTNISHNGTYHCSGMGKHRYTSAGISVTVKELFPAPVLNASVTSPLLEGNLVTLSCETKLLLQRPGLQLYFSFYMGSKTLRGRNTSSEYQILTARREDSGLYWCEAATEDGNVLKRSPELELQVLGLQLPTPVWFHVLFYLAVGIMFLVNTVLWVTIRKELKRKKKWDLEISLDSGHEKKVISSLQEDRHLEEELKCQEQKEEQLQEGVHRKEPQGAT

Molecule | Cell Surface Fc (OD405) [1] [OD405] | binding result [2]
Goat anti-human IgG Fc alkaline phosphatase conjugate (Sigma) (antibody) | 2.8 | 
B1 |  | binds
